Reference: PMC4080824, “Altered native stability is the dominant basis for susceptibility of α1-antitrypsin mutants to polymerization” (Biochemical Journal, 2014)
Residue numbers refer to the chain shown, from its start. Numbers in names are those of the source.

B1: α1-antitrypsin C232S E162C/V170C (162–170) (natural protein)
chain: DPQGDAAQKTDTSHHDQDHPTFNKITPNLAEFAFSLYRQLAHQSNSTNIFFSPVSIATAFAMLSLGTKADTHDEILEGLNFNLTEIPEAQIHEGFQELLRTLNQPDSQLQLTTGNGLFLSEGLKLVDKFLEDVKKLYHSEAFTVNFGDTEEAKKQINDYVCKGTQGKICDLVKELDRDTVFALVNYIFFKGKWERPFEVKDTEEEDFHVDQVTTVKVPMMKRLGMFNIQHSKKLSSWVLLMKYLGNATAIFFLPDEGKLQHLENELTHDIITKFLENEDRRSASLHLPKLSITGTYDLKSVLGQLGITKVFSNGADLSGVTEEAPLKLSKAVHKAVLTIDEKGTEAAGAMFLEAIPMSIPPEVKFNKPFVFLMIEQNTKSPLFMGKVVNPTQK
modifications: disulfide bond between C162 and C170 (predominantly in the disulfide-bonded form, >90%); reduced where treated with 100 mM 2-mercaptoethanol
notes: α1-antitrypsin, wild-type (M) ORF on the C232S background; Same construct as m3 with the stated changes; source: E. coli SG13009/pREP4 (pQE-30) or BL21(DE3) (pQE-81L), purified; not shown: His6, N-terminal, kept
B2: α1-antitrypsin C232S K168C/F189C (168–189) (natural protein)
chain: B1 chain with C161E, K167C, C169V, F188C
modifications: disulfide bond between C168 and C189 (predominantly in the disulfide-bonded form, >90%); reduced where treated with 100 mM 2-mercaptoethanol
notes: as for B1
B3: α1-antitrypsin C232S S292C/T339C (292–339) (natural protein)
chain: B1 chain with C161E, C169V, S291C, T338C
modifications: disulfide bond between C292 and C339 (predominantly in the disulfide-bonded form, >90%); reduced where treated with 100 mM 2-mercaptoethanol
notes: as for B1
B4: α1-antitrypsin C232S S283C/P361C (283–361) (natural protein)
chain: B1 chain with C161E, C169V, S282C, P360C
modifications: disulfide bond between C283 and C361 (predominantly in the disulfide-bonded form, >90%); reduced where treated with 100 mM 2-mercaptoethanol
notes: as for B1

Columns and labels:
[1] = target: bovine α-chymotrypsin (bovine); assay: stoichiometry of inhibition by titration of enzyme activity; as the stoichiometry of inhibition assay, protein treated with 100 mM 2-mercaptoethanol (reduced)
[2] = target: bovine α-chymotrypsin (bovine); assay: stoichiometry of inhibition by titration of enzyme activity; inhibitor incubated with 0.5 μM bovine α-chymotrypsin for 30 min at room temperature (21°C) in 20 mM Tris/HCl, 0.1 M NaCl, 0.1% PEG 8000, 10 mM CaCl2 pH 8.0; residual activity on N-succinyl-Ala-Ala-Pro-Phe-p-nitroanilide
[3] = target: the molecule itself; assay: FRET or BRET; mutant series; 0.2 mg/ml protein, 4 μM Atto550–Ni-NTA and 4 μM Atto647N–Ni-NTA on the His6 tag, 10 mM NaH2PO4/Na2HPO4, 100 mM NaCl pH 7.4; heat-induced polymerization at 55°C; time to half-maximal signal
[4] = target: the molecule itself; assay: FRET or BRET; mutant series; 0.2 mg/ml protein, 4 μM Atto550–Ni-NTA and 4 μM Atto647N–Ni-NTA on the His6 tag, 10 mM NaH2PO4/Na2HPO4, 100 mM NaCl pH 7.4; heat-induced polymerization at 60°C; time to half-maximal signal
[5] = target: the molecule itself; assay: FRET or BRET; mutant series; 0.2 mg/ml protein, 4 μM Atto550–Ni-NTA and 4 μM Atto647N–Ni-NTA on the His6 tag, 10 mM NaH2PO4/Na2HPO4, 100 mM NaCl pH 7.4; heat-induced polymerization at 65°C; time to half-maximal signal

Molecule	SI (stoichiometry of inhibition) [1]	SI (stoichiometry of inhibition) [2]	polymerization half-time (t0.5) [3] [s]	polymerization half-time (t0.5) [4] [s]	polymerization half-time (t0.5) [5] [s]
α1-antitrypsin C232S E162C/V170C (162–170) (from UniProt P01009 26-418) (natural protein)	1	1	–	–	–
α1-antitrypsin C232S S292C/T339C (292–339) (from UniProt P01009 26-418) (natural protein)	1	1	–	–	–
α1-antitrypsin C232S K168C/F189C (168–189) (from UniProt P01009 26-418) (natural protein)	–	8.5	–	–	–
α1-antitrypsin C232S S283C/P361C (283–361) (from UniProt P01009 26-418) (natural protein)	1	1	–	–	–
α1-antitrypsin C232S K191C/T339C (191–339) (from UniProt P01009 26-418) (natural protein)	1	–	–	–	–
α1-antitrypsin C232S K335A (from UniProt P01009 26-418) (natural protein)	–	1	–	–	–
α1-antitrypsin C232S (AT_(C232S)) (from UniProt P01009 26-418) (natural protein)	–	1.1	–	–	–
α1-antitrypsin C232S K331V (from UniProt P01009 26-418) (natural protein)	–	3.9	–	–	–
B1	–	–	3930	941	226
B2	–	–	21900	8870	1010
B3	–	–	2290	307	51
B4	–	–	8970	1430	37
